Where two headings read alike, the source gives them in different places.
Columns and labels:
Proteinase K [1] = conditions: even without bound biotin; refs (8,32); cited from earlier work
[2] = Microplate assay: remaining biotin-binding activity after heat treatment; assay type: physicochemical; conditions: 50 mM phosphate buffer, 100 mM NaCl, pH 7.0
Method: The inactivation of the proteins during heat-treatment was analysed by using a microplate assay (23). The proteins were heated to 99.9° C. in 50 mM phosphate buffer containing 100 mM NaCl (pH 7.0) for 32 minutes. The remaining activity was probed by measuring the ability of the proteins to bind biotinylated alkaline phosphatase by coating the microplate wells with samples of the heated proteins.

[3] = cited from earlier work
[4] = Fluorescent biotin dissociation assay; assay type: binding
Method: The binding of labelled biotin to avidins was analysed by a method based on the quenching of a biotin-coupled fluorescent probe ArcDia BF560 (ArcDia Ltd., Turku, Finland) due to binding to avidin, as previously described (18). The measurements were performed using a PerkinElmer LS55 luminometer with thermostated cuvette (25 or 50° C.). The signal measured for 3600 sec (25° C.) or 2400 sec (50° C.) was used to determine the dissociation rate constant.

[5] = IAsys optical biosensor (SPR), 2-iminobiotin binding; conditions: 2-iminobiotin surface, 20° C., 50 mM borate buffer pH 9.5, 1 M NaCl
Method: The biotin-binding characteristics of the different avidins were studied by a surface plasmon resonance (SPR) optical biosensor (IAsys). The binding affinities to the 2-iminobiotin surface in 50 mM borate buffer (pH 9.5, 1 M NaCl) were measured as previously reported (7).

Proteinase K [6] = test: Proteinase K assay (proteolytic resistance, SDS-PAGE); assay type: physicochemical; conditions: for digested after treatment with Proteinase K: 16 hours, 37° C., Proteinase K 1/25 w/w, without biotin; for cleavage by Proteinase K: proteins saturated with biotin before treatment
Method: The proteolytic resistance of the proteins were studied using proteolysis by Proteinase K, as previously described (7). Protein sample (4 μg) was incubated in the presence of Proteinase K ( 1/25 w/w) at 37° C. for a predetermined time period, denatured by boiling in sample buffer (SDS, 2-mercaptoethanol) and subjected to SDS-PAGE followed by coomassie staining.

[7] = Differential scanning calorimetry (DSC), heat denaturation; assay type: physicochemical
Method: The transition midpoint of the heat denaturation (Tm) of the avidin proteins was studied using a Calorimetry Sciences Corporation (CSC) Nano II differential scanning calorimeter, as in previous reports (22,23). Proteins (˜0.5 mg/ml) were analyzed both in the absence and presence of biotin (3:1 molar ratio; biotin:avidin monomer).

[8] = Radiobiotin dissociation assay; assay type: binding; conditions: [3H]biotin, various temperatures
Method: The dissociation rate of [3H]biotin from avidin, AVR4/5 and the avidin mutants was determined as described in (20) at various temperatures. The activation thermodynamic parameters for AVR4/5(C122S) and avidin were determined by analysis of the dependence of the dissociation rate upon temperature using the global fit of all data, as described in (21).

Substance	resistance to cleavage by Proteinase K (Proteinase K [1])	Activity: biotin-binding activity after 32 min treatment at 99.9° C. [2]	ΔH (unfolding enthalpy) ([3]; DSC, sample without biotin, results from ref (8))	Tm(+biotin) ([3]; DSC, with biotin, results from ref (8))	Tm(−biotin) ([3]; DSC, without biotin, results from ref (8))	ΔTm, change in Tm upon addition of a three-fold molar excess of biotin ([3]; DSC, results from ref (8))	Tm, transition midpoint of heat denaturation ([3]; from ref (8))	Release 1 h (total release of the probe) ([4]; 25° C.)	kdiss, dissociation rate constant ([4]; 25° C.)	Release 1 h (total release of the probe) ([4]; 50° C.)	kdiss, dissociation rate constant ([4]; 50° C.)	kass, association rate constant [5]	digested after treatment with Proteinase K (Proteinase K [6])	cleavage by Proteinase K (Proteinase K [6])	Tm, transition midpoint of heat denaturation [7]	ΔTm, change in Tm upon addition of a three-fold molar excess of biotin ([7]; DSC)	Tm(+biotin) ([7]; DSC, biotin 3:1 molar ratio biotin:avidin monomer)	ΔH (unfolding enthalpy) ([7]; DSC, sample without biotin)	Tm(−biotin) ([7]; DSC, without biotin, average ± S.D)	biotin binding / dissociation rate in radiobiotin dissociation assay [8]
streptavidin: Bacterial analogue of avidin from Streptomyces avidinii	resistant to cleavage																			
AVD: Chicken avidin obtained from Belovo S. A.; homotetrameric egg-white glycoprotein (SEQ ID NO:1) [reference compound]		4%	329 ± 5 kJ/mol	117.0 ± 0.7 °C	83.5 ± 0.1 °C	33.5 °C	83.5 °C	10.7%	2.04 10^−5 s^−1	71.5%	2.74 10^−4 s^−1	(2.6 ± 0.2) × 10^4 M^−1s^−1	50%	no cleavage was observed						
AVD(I117Y): Avidin with mutation I117Y in 1-3 subunit interface, produced in baculovirus-infected insect cells		47%						3.0%	0.81 10^−5 s^−1	56.5%	1.61 10^−4 s^−1	(2.3 ± 0.3) × 10^4 M^−1s^−1	50%	no cleavage was observed	97.5 °C	26.2 °C	123.7 ± 0.1 °C	536 ± 6 kJ/mol	97.5 ± 0.4 °C	very tight, avidin-like biotin binding
